# Reference: patent publication US20230242624A1 (NEURIMMUNE, published 2023)
# Where a chain is given by its changes, count along the chain named.
# T1: MERS-CoV Spike protein fragment (RBD, aa 367-606, His tag) (MERS-CoV, UniProt K9N5Q8 367-606)
# T1 sequence: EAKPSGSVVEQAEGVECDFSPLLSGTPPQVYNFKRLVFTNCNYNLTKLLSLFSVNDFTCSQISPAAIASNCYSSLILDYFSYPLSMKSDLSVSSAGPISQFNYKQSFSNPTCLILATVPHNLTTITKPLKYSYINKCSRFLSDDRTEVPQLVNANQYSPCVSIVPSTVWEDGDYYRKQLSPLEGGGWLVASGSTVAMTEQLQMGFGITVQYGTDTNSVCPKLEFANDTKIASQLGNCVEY
# B1: NI-607.649_G7 (antibody, V domains shown)
# VH: QVQLVESGGGLVQPGGSLRLSCAASGFTFSRYAMSWVRQAPGKGLEWVSAISGSGGSTYYADSVKGRFTISRDNSKNTLYLQINSLRAEDTAVYYCAKGVRWGVDYFDYWGQGTLVTVSS
# VL: not shown
# B2: NI-607.791_B10 (antibody, V domains shown)
# VH: QVQLQQWGAGLLKPSETLSRTCAVYGGSFSDYYWSWIRQPPGKGLEWIGEVNHRGVTNYNPSLKSRVTISIDTSKSQFSLELRSVTDADTALYFCARSPFWTIAARPFDYWGRGTLVTVSS
# VL: EIVMTQSPGTLSLSPGERATLSCRASQSVISNYLAWYQQKPGQAPRFLIYAASTRARGIPDRFSGSGSGTDFTLTISRLEAEDFAVYYCQQYGNSPLTFGGGTKLEIK
# B3: NI-607.532_C8 (antibody, V domains shown)
# VH: QVQLVESGGGLVKPGRSLRLSCTASGFTFGDYAMSWFRQAPGKGLEWVGFIRSKAYGGTTEYAASVKGRFSISRDDSKSIAYLQMNSLKTEDTAVYYCTRGWIVVVIEDAFDIWGQGTMVTVSS
# VL: not shown
# B4: NI-607.426_D4 (antibody, V domains shown)
# VH: not shown
# VL: EIVLTQSPATLSLSPGERATLSCRASQSVSSYLAWYQQKPGQAPRLLIYDASNRATGIPARFSGSGSGTDFTLTISSLEPEDFAVYYCQQRSNWPPVTFGQGTRLEIK
# B5: NI-607.820_B7 (antibody, V domains shown)
# VH: EVQLVESGGGLVQPGRSLRLSCAASGFTFDDFDMHWVRQAPGKGLEWVSGVTWNSGIIGYADSVKGRFTISRDNAKNSLYLQMNSLRAEDTALYYCAKEFYPRYGSGIRSHYFGMDVWGQGTTVTVSS
# VL: QSVLTQSPSASGTPGQRVTISCSGSSSNVGSNAVNWYQQLPGTAPKLLIYSNNRRPSGVPNRFSGSKSGTSASLAISGLQSDDEADYYCAAWDDSLDGPTFGGGTKLTVL
# B6: NI-607.532_D4 (antibody, V domains shown)
# VH: QVQLVQSGAEVKRPGASVKVSCKASGYHFTDYYIHWVRQAPGQGLEWMGWINPNSGGTNYAQKFQGRVTMTRDTSISTAYMELSRLRSDDTAVYYCARVYYYDSSSFADYWGQGTLVTVSS
# VL: not shown
# notes: also called NI-607.532_D4C5
# B7: NI-607.532_B6 (antibody, V domains shown)
# VH: QVQLVQSGAEVKKPGASVKVSCKASGYTFTSYDINWVRQATGQGLEWMGWMNPNSGNTGYAQKFQGRVTMTRNTSISTAYMELSSLRSEDTAVYYCARVVSLTGFFDYWGQGTLVTVSS
# VL: SYELTQPPSVSVAPGKTARITCGGNNIGSKNVHWYQQKPGQAPVLVVYDDSDRPSGIPERFSGSNSGNTATLTISRVEAGDEADYYCQVWDSSSDPWVFGGGTKLTVL
# B8: NI-607.274_E5 (antibody, V domains shown)
# VH: EVQLVESGGGMVQPGRSLRLSCAGSGFTFSTHGMHWVRQAPGKGLEWITGITYDGSDEFYADSVKGRFTIARDNSKNMLYLQMNSLRAEDTAVYFCAKDLEWLTNYVDHWGQGTLVTVSS
# VL: DIVMTQSPGTLSVSPGERATLSCRASQSVNYNLAWYQQKPGQAPRLLIFDASTRATGIPARFTGSGSGTEFTLTISSLQSEDFAVYYCQQSNAWLTFGGGTKLEIK
# B9: NI-607.531_E7 (antibody, V domains shown)
# VH: EVQLVESGGGVVQPGRSLRLSCAASGFTFNFYSMHWVRQVPGKGLEWVAVISFDGSTKHYAESLRGRFAVSRDNSKSTLYLQMNSLRPEDTAVYYCASPPLSPIPAAGTPLDYWGQGTLVTVSS
# VL: EIVMTQSPDSLAVSLGERATINCKSSQSIFYRSDDKDFLAWYQQKPGQPPKLLISWASTRESGVPDRFSGSGSGTDFTLTISSLQAEDVAVYYCQQFYYTPFTFGPGTKLEIK
# notes: also called F31 E7
# B10: NI-607.529_G4 (antibody, V domains shown)
# VH: QVQLQQWGAGLLKPSETLSLTCAVYGGSFSGYYWSWIRQPPGKGLEWIGEINHSGSTNYNPSLKSRVTISVDTSKNQFSLKLSSVTAADTAVYYCARASLYYSDSSGYSHPYYFDYWGQGTLVTVSS
# VL: QPVLTQPPSVSGAPGQRVTISCTGSSSNIGAGYDVHWYQQLPGTAPKLLIYGNSNRPSGVPDRFSGSKSGMSASLAITGLQAEDEADYYCQSYDSSLSGWVFGGGTKLTVL
# B11: NI-607.531_E3 (antibody, V domains shown)
# VH: EVQLVESGGGVVQPGRSLRLSCAASGFTFSSYGMHWVRQAPGKGLEWVAVISYDGSNKYYADSVKGRFTISRDNSKNTLYLQMNSLRAEDTAVYYCAKQISGYNYPYYFDYWGQGTLVTVSS
# VL: not shown
# B12: NI-607.532_D8 (antibody, V domains shown)
# VH: EVQLVESGGGVVQPGRSLRLSCAASGFTFSSYGMHWVRQAPGKGLEWVAVISYDGSNKYYADSVKGRFTISRDNSKNTLYLQMNSLRAEDTAVYYCAKQGGGQYCSGGSCYSGYFDYWGQGTLVTVSS
# VL: not shown
# B13: NI-607.761_B7 (antibody, V domains shown)
# VH: EVQLVESGGGVVQPGRSLRLSCAASGFTFTRYGMHWVRQAPGKGLEWVAVIWYDGNNKNYEDSVRGRFTISRDNSKNTLFLQMNSLRAEDTAVYYCARGRRGGYSYGLFDYWGQGILVTVSS
# VL: AIRMTQSPSSLSASVGDRVTITCQASQDISNYLNWYQQKPGKAPKLLIYDASNLETGVPSRFSGSGSGTDFTFTISSLQPEDVATYSCQQYDNLPLTFGGGTKVEIK
# B14: NI-607.820_B6 (antibody, V domains shown)
# VH: EVQLQESGPGLVKPSETLSLTCTVSGGSVSSGSYYWSWIRQPPGKGLEWIGYIYYSGSTNYNPSLKSRVTISVDTSKNQFSLKVSSVTAADTAVYYCARDSIVVVPAARPLYYGMDVWGQGTTVTVSS
# VL: not shown
# B15: NI-607.426_E2 (antibody, V domains shown)
# VH: EVQLVESGGGLVQPGGSLRLSCAASGFTFSSYDMHWVRQATGKGLEWVSAIGTAGDTYYPGSVKGRFTISRENAKNSLYLQMNSLRAEDTAVYYCARASFLDYSWLYFDYWGQGTLVTVSS
# VL: not shown
# B16: NI-607.531_D8 (antibody, V domains shown)
# VH: EVQLVESGGGLVQPGRSLRLSCAASGFIFDDYAMHWVRQAPGKGLEWVSGISWNSDSIGYADSVKGRFTISRDNAKNSLYLQMNSLRAEDTALYYCAKGSRSDWSNPSDYWGQGTLVTVSS
# VL: B7 VL with N31S, W97V
# B17: NI-607.275_C5 (antibody, V domains shown)
# VH: QVQLVESGGGLVQPGGSLRLSCAASGFTVSSNYMSWVRQAPGKGLEWVSVIYSGGSTYYADSVKGRFTISRDNSKNTLYLQMNSLRAEDTAVYYCARDFGDYYFDYWGQGTLVTVSS
# VL: not shown
# Molecular target: recombinant SARS-CoV Spike protein (RBD, His tag) (SARS-CoV, UniProt P59594 306-527)
# Assay: iQue flow cytometry, antigen-coated beads
row,Binder,EC50 [nM]
1,B1,22.2
2,B2,400
3,B3,400
4,B4,1000
5,B5,800
6,B6,1000
7,B7,4.2
8,B8,900
9,B9,600
10,B10,10
11,B11,2.6
12,B12,32
13,B13,200
14,B14,60.2

# Molecular target: T1, MERS-CoV Spike protein fragment (RBD, …)
# Assay: iQue flow cytometry, antigen-coated beads
row,Binder,EC50 [nM]
1,B1,800
2,B2,400
3,B3,400
4,B15,600
5,B4,1000
6,B5,800
7,B6,1000
8,B16,1000
9,B7,1000
10,B8,900
11,B9,800
12,B10,1000
13,B17,800
14,B11,1000
15,B12,1000
16,B13,200
17,B14,1000

# Molecular target: T2, SARS-CoV-2-S1 (RBD)-His protein (Trenzyme) (SARS-CoV-2, UniProt P0DTC2 319-541)
# Assay: iQue flow cytometry, antigen-coated beads
row,Binder,EC50 [nM]
1,B1,5.7
2,B2,13.7
3,B15,2.06
4,B4,0.76
5,B5,9
6,B6,1
7,B16,1.4
8,B7,1.1
9,B8,0.39
10,B9,1.3
11,B10,1.3
12,B17,1.5
13,B11,1.4
14,B12,14.4
15,B13,0.44
16,B14,2.4

# Molecular target: SARS-CoV-2 Spike (S) protein on vesicular stomatitis virus (VSV) pseudoviruses (SARS-CoV-2, UniProt P0DTC2 14-1273)
# Assay: cell-based or functional assay
row,Binder,"IC50, pseudovirus entry assay (luciferase, HEK 293T-ACE2 cells) [µg/mL]"
1,B1,> 100
2,B16,> 100
3,B7,100
4,B9,3.9
5,B10,> 100

# Molecular target: T2, SARS-CoV-2-S1 (RBD)-His protein …
# Assay: direct ELISA on coated RBD-His
row,Binder,EC50 [nM]
1,B1,0.024
2,B2,0.062
3,B15,0.03
4,B4,0.033
5,B5,0.082
6,B6,0.0055
7,B16,0.0045
8,B7,0.0045
9,B8,0.015
10,B9,0.027
11,B10,0.026
12,B17,0.02
13,B11,0.02
14,B12,0.0051
15,B13,0.001
16,B14,0.029

# Molecular target: T3, BSA (Sigma-Aldrich) (bovine, UniProt P02769 25-607)
# T3 construct: also called bovine serum albumin; BSA control
# Assay: direct ELISA on coated BSA
row,Binder,binding result
1,B2,no binding (tested: 400 nM)
2,B3,no binding (tested: 400 nM)
3,B15,no binding (tested: 400 nM)
4,B4,no binding (tested: 400 nM)
5,B5,no binding (tested: 400 nM)
6,B16,no binding (tested: 400 nM)
7,B7,no binding (tested: 400 nM)
8,B8,no binding (tested: 400 nM)
9,B10,no binding (tested: 400 nM)
10,B17,no binding (tested: 400 nM)
11,B11,no binding (tested: 400 nM)
12,B13,no binding (tested: 400 nM)
13,B14,no binding (tested: 400 nM)

# Molecular target: T2, SARS-CoV-2-S1 (RBD)-His protein …
# Assay: competition ELISA, RBD binding to coated ACE2
row,Binder,IC50 [nM]
1,B15,10.7
2,B4,24.4
3,B8,12.6
4,B9,3.67
5,B17,36.8
6,B13,56
